Source: patent US20160083712A1 (UNIVERSITY OF LEICESTER, published 2016)

Target: the molecule itself
Test: crystal structure, PISA analysis of assemblies

B1: CSN51-257 wild type (human CSN5 residues 1-257, GST tag cleaved off) (enzyme)
chain: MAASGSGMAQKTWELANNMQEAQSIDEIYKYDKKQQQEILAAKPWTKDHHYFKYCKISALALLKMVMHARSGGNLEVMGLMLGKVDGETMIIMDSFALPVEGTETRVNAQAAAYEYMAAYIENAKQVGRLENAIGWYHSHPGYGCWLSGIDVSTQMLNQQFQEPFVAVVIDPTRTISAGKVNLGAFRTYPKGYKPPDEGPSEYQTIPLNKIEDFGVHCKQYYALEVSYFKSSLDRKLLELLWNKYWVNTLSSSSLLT
notes: Purified after cleavage by GST-3C protease; Crystallised form (PDB 4F70; SeMet-labelled for the crystal); Monomer-dimer equilibrium in solution; also called WT protein
B1: binds.
